Values of other authors as cited in paper PMC130215.

Molecular target: LIR-1 (ILT2) (Homo sapiens) (UniProt Q8NHL6)
Sequence of UniProt Q8NHL6 (Q8NHL6 24-461): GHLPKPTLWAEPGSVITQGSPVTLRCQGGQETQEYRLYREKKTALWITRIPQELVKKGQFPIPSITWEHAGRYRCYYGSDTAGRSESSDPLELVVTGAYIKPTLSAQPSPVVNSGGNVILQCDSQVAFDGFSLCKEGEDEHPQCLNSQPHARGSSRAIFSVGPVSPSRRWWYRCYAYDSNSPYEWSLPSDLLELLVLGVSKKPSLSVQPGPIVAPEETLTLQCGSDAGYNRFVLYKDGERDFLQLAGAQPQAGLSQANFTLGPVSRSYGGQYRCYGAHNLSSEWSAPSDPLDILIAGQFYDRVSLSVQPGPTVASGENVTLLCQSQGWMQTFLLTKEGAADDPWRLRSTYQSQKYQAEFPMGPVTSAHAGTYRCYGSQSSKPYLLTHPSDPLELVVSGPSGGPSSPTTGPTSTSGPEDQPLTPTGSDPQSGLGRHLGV

In the case of UL18 (from UniProt P08560), the Kd is given as 2 nM.
